We go through one substance from patent publication US20080318246A1, “Deeply quenched enzyme sensors” (The Albert Einstein College of Medicine of Yeshiva …, priority 2007, published 2008).

The test concerns the target cAMP-dependent protein kinase (PKA), murine catalytic subunit (murine) (UniProt P05132). Description: cell-based or functional assay.

For PKI (14-22) peptide, the IC50 of PKA activity (Deep Quench assay, P2/Ponceau S, 1 mM ATP) stood at 1100 nM and the IC50 of PKA activity (standard radioactive ATP method) is 1600 nM.
